The target of assay [1] is scCSGal-1–6H M120L R141AzK-ss-bio (human). In words: BLI; Octet RED96e; streptavidin tips loaded with 60 ug/mL biotinylated scCSGal-1 protein; vWF at 25 ug/mL as analyte; association 600 s, dissociation 150 s; PBS with 0.05% Tween 20 and 0.1% BSA, pH 7.4; 25 °C, 1000 rpm; read-out Rt = response at 600 s.
Assay [2] concerns the target scCSGal-1–6H M120L Q142AzK-ss-bio (human). The description is as above.

With “von Willebrand factor (from UniProt P04275 764-2813) (natural protein)”, the Rt (specific BLI response at 600 s) in assay [1] amounted to 0.32 nm; in assay [2], 0.14 nm.

Values taken from paper PMC11660155.
